Test results from patent US20120258090.

How the values were obtained:
[1] = target: fully carboxylated recombinant human prothrombin, P00734
[2] = target: incompletely carboxylated recombinant human prothrombin, P00734

B1: recombinant ecarin (activated, in CHO-S culture supernatant) (protein)
chain: VPPHERKFEKKFIELVVVVDHSMVTKYNNDSTAIRTWIYEMLNTVNEIYLPFNIRVALVGLEFWCNGDLINVTSTADDTLHSFGEWRASDLLNRKRHDHAQLLTNVTLDHSTLGITFVYGMCKSDRSVELILDYSNITFNMAYIIAHEMGHSLGMLHDTKFCTCGAKPCIMFGKESIPPPKEFSSCSYDQYNKYLLKYNPKCILDPPLRKDIASPAVCGNEIWEEGEECDCGSPADCRNPCCDAATCKLKPGAECGNGECCDKCKIRKAGTECRPARDDCDVAEHCTGQSAECPRNEFQRNGQPCLNNSGYCYNGDCPIMLNQCIALFSPSATVAQDSCFQRNLQGSYYGYCTKEIGYYGKRFPCAPQDVKCGRLYCLDNSFKKNMRCKNDYSYADENKGIVEPGTKCEDGKVCINRKCVDVNTAY
- activation of prothrombin [1]: the recombinant ecarin is able to efficiently activate both the fully carboxylated and the incompletely carboxylated prothrombins
- activation of prothrombin [2]: the recombinant ecarin is able to efficiently activate both the fully carboxylated and the incompletely carboxylated prothrombins
